Test results: patent EP4714971A1 (Shanghai Hansoh Biomedical Co., Ltd., dated 2024)
Read-outs that look alike come from different tables or passages of the source.

Assays:
Assay in all cases: flow cytometry on CHO-K1 cells expressing human SEZ6
[1] = target: T1, human SEZ6 expressed on stably transfected CHO-K1 cells (human, UniProt Q53EL9 20-994)
T1 construct: also called CHO-SEZ6; hSEZ6
T1 sequence: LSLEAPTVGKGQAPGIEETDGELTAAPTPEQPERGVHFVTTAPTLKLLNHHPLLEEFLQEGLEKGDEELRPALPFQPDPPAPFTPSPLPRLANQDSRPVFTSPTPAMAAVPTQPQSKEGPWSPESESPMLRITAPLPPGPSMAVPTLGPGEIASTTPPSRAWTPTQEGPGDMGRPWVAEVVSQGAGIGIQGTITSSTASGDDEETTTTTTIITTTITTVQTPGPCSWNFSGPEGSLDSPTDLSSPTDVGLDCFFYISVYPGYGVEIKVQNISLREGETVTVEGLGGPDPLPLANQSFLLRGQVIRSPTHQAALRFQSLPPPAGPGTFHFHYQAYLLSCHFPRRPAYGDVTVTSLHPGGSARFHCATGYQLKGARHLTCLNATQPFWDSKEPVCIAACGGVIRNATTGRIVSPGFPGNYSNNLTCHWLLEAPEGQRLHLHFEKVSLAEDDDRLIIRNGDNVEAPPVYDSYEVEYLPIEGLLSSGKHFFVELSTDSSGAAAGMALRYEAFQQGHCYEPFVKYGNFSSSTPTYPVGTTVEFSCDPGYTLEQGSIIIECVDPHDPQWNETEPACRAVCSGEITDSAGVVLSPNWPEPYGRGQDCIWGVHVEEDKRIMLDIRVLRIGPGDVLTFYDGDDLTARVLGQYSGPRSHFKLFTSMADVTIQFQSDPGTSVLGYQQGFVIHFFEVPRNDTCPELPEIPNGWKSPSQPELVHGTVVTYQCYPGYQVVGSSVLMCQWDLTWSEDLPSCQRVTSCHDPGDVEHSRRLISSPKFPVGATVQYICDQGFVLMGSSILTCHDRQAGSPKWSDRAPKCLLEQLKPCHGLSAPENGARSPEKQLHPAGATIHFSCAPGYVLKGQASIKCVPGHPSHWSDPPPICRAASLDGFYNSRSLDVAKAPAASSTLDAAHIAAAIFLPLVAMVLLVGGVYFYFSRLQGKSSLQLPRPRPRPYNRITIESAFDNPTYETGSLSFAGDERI

[2] = target: T1, human SEZ6 expressed on stably …; remark: listed apart in the source
[3] = target: T1, human SEZ6 expressed on stably …; remark: listed apart in the source

B1: hSC200 (hSC17.200) (antibody, human IgG1, kappa, V domains shown)
VH: EVQLVQSGAEVKKPGESLKISCKGSGYSFTSSWINWVRQMPGKGLEWMGRIYPGEGDTNYNGNFEGQVTISADKSISTAYLQWSSLKASDTAMYYCTRGLVMDYWGQGTLVTVSS
VL: EIVLTQSPATLSLSPGERATLSCRASQSVDYNGISYMHWYQQKPGQAPRLLIYAASNVQSGIPARFSGSGSGTDFTLTISSLEPEDFAVYYCQQSIEDPPTFGGGTKVEIKR
notes: also called control molecule; control antibody
EC50 [1]: 0.19 nM | EC50 [2]: 0.21 nM | MFImax [2]: 3940 | EC50 [3]: 0.66 nM | MFImax [3]: 3300
